# Reference: patent US20160251440A1 (Ablynx, published 2016)
# T1: human IL-23R extracellular domain Fc-fusion (human, UniProt Q5VWK5 24-355)
# T1 construct: extracellular domain; bought; also called IL-23R-Fc
# T1 sequence (looked up): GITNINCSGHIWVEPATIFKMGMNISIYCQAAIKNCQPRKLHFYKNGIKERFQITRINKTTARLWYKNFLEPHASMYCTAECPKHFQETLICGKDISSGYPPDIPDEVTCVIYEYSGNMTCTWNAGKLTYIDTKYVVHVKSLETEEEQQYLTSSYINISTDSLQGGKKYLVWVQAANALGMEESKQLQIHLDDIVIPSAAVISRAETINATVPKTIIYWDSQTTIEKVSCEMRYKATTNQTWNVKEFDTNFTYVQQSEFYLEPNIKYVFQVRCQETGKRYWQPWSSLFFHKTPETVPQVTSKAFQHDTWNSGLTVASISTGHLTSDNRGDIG
# T2: human IL-23R, cell-expressed (human, UniProt Q5VWK5 24-629)
# T2 construct: whole, on cells
# T2 sequence (looked up): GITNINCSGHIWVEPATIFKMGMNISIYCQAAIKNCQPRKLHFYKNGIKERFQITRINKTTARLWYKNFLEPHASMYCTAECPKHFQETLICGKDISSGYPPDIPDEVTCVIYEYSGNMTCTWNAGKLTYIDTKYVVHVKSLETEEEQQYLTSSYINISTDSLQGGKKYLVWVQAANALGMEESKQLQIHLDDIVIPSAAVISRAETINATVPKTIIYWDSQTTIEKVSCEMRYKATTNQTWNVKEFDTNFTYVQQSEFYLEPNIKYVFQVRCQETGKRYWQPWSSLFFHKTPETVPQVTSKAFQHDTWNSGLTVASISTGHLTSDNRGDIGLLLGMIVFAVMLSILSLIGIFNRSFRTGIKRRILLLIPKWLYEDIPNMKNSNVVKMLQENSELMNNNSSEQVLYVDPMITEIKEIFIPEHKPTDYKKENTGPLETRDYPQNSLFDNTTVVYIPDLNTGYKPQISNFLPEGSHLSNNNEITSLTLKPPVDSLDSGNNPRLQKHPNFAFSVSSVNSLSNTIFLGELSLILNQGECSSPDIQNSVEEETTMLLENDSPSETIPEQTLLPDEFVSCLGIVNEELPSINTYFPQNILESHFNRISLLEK
# T3: recombinant IL-3Rα ectodomain (human, UniProt P26951 19-305)
# T3 construct: extracellular domain; also called recombinant IL-3Ra; biotinylated-IL-3Rα ectodomain
# T3 sequence (looked up): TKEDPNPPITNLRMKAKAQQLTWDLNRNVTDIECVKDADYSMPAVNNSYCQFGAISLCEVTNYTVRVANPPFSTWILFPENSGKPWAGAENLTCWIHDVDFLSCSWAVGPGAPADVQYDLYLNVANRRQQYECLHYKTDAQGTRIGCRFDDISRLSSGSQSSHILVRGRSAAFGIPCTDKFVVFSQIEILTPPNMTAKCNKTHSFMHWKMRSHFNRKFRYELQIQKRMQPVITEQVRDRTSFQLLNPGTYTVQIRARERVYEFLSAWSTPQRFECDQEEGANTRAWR
# B1: 3F11 (VHH)
# VHH: EVQLVESGGGSVQPGGSLTLSCGTSGRTFNVMGWFRQAPGKEREFVAAVRWSSTGIYYTQYADSVKSRFTISRDNAKNTVYLEMNSLKPEDTAVYYCAADTYNSNPARWDGYDFRGQGTQVTVSS
# notes: also called CD4#8; 03F11
# B2: IL23R#19: 150D02 (VHH)
# VHH: EVQLVESGGGLVQPGGSLTLSCVASGRTFSTDVMGWFRQAPGKEREFVAAHRTSGISTVYAASVKGRFTISRDNAKNTVYLGMKSLKPEDTAVYVCAAGSDASGGYDYWGQGTLVTVSS
# notes: also called LG150D02
# B3: 281F12 (VHH)
# VHH: EVQLVESGGGLVQAGDSLRLSCAASGRAFSRYAMGWFRQAPGKEREFVAAIGWGPSKTNYADSVKGRFTISRDNAKNTVYLQMNTLKPEDTAVYSCAAKFVNTDSTWSRSEMYTYWGQGTLVTVSS
# notes: also called CXCR4#2; 4CXCR281F12-FLAG3-HIS6
# Assays:
# [1] = biological target: T4, human CXCR4 (on cells, viral lipoparticles or membrane extracts) (human, UniProt P61073 1-352); assay: ELISA on coated hCXCR4 lipoparticles against null lipoparticles, anti-c-myc detection
# T4 construct: whole, on cells; also called hCXCR4 VLPs; CXCR4-lip
# T4 sequence (P61073 whole entry): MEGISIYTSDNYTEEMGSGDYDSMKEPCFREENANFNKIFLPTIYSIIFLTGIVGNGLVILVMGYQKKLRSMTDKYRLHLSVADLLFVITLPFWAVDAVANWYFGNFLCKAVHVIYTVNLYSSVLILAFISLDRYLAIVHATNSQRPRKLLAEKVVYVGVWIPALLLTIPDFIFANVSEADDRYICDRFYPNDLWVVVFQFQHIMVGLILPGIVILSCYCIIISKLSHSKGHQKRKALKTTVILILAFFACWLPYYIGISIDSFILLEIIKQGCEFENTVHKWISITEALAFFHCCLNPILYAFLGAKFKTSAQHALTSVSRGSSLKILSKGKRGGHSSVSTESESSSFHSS
# [2] = biological target: T5, human CD4, cell-expressed (human, UniProt P01730 26-458); assay: FACS, MOLM-13 cells
# T5 construct: whole, on cells
# [3] = biological target: T5, human CD4, cell-expressed; assay: cell-based or functional assay
# [4] = biological target: T5, human CD4, cell-expressed; assay: cell-based or functional assay; remark: listed apart in the source
# [5] = biological target: T5, human CD4, cell-expressed; assay: FACS, THP-1 cells
# [6] = biological target: T5, human CD4, cell-expressed; assay: FACS, Jurkat E6.1 cells (CD4 no or low)
# [7] = biological target: T6, human IL12Rβ1, cell-expressed (human, UniProt P42701 24-662); assay: flow cytometry on isolated CD8+ T cells of donor D863, anti-Flag detection
# T6 construct: whole, on cells; in the context of the heterodimeric receptor; also called IL12Rb1
# [8] = biological target: T5, human CD4, cell-expressed; assay: FACS, MOLM-13 cells; remark: listed apart in the source
# [9] = biological target: T5, human CD4, cell-expressed; assay: cell-based or functional assay; remark: listed apart in the source
# [10] = biological target: T5, human CD4, cell-expressed; assay: cell-based or functional assay; remark: listed apart in the source
# [11] = biological target: T5, human CD4, cell-expressed; assay: FACS, human T cells
# [12] = biological target: T5, human CD4, cell-expressed; assay: FACS, Jurkat E6-1 cells (CD4 low)
# [13] = biological target: T1, human IL-23R extracellular domain …; assay: competition ELISA, coated IL-23 + IL-23R-Fc; IL-23 competition ELISA of Table 3.3
# [14] = biological target: T1, human IL-23R extracellular domain …; assay: competition ELISA, coated IL-23 + 5 nM IL-23R-Fc
# [15] = biological target: T2, human IL-23R, cell-expressed; assay: FACS, Th17-differentiated T cells
# [16] = biological target: T1, human IL-23R extracellular domain …; assay: SPR Biacore T100, captured IL-23R-Fc
# [17] = biological target: T2, human IL-23R, cell-expressed; assay: cell-based or functional assay
# [18] = biological target: T5, human CD4, cell-expressed; assay: flow cytometry on MOLM-13 cells (CD4, no IL12R or IL23R), upper right panel
# [19] = biological target: T4, human CXCR4 (on cells, viral …); assay: flow cytometry on U-937 cells (CXCR4, virtually no IL-3Ra)
# [20] = biological target: T4, human CXCR4 (on cells, viral …); assay: FACS, Jurkat E6-1 cells
# [21] = biological target: T4, human CXCR4 (on cells, viral …); assay: cell-based or functional assay
# [22] = biological target: T4, human CXCR4 (on cells, viral …); assay: FACS, MOLM-13 cells
# [23] = biological target: T4, human CXCR4 (on cells, viral …); assay: flow cytometry on MOLM-13 cells (IL-3Ra higher than CXCR4)
# [24] = biological target: T4, human CXCR4 (on cells, viral …); assay: cell-based or functional assay; remark: listed apart in the source
# [25] = biological target: T4, human CXCR4 (on cells, viral …); assay: FACS, Jurkat cells
# [26] = biological target: T4, human CXCR4 (on cells, viral …); assay: [125I]-SDF-1 displacement, Hek-CXCR4 membrane extracts
# [27] = biological target: T4, human CXCR4 (on cells, viral …); assay: cell-based or functional assay; remark: listed apart in the source
# [28] = biological target: T4, human CXCR4 (on cells, viral …); assay: cell-based or functional assay; remark: listed apart in the source
# [29] = biological target: T3, recombinant IL-3Rα ectodomain; assay: ELISA on recombinant IL-3Ra ectodomain (both lower panels)
# [30] = biological target: T4, human CXCR4 (on cells, viral …); assay: flow cytometry on THP-1 cells (CXCR4 and IL-3Ra)
# [31] = biological target: T4, human CXCR4 (on cells, viral …); assay: flow cytometry on THP-1 cells (CD4 and CXCR4), detection via tag
# [32] = biological target: T4, human CXCR4 (on cells, viral …); assay: cell-based or functional assay; remark: listed apart in the source
# [33] = biological target: T4, human CXCR4 (on cells, viral …); assay: cell-based or functional assay; remark: listed apart in the source
binder,measurement,setting,value
B1,binding result,[1],no binding (tested: 100 nM)
same,EC50,[2],0.0007 µM
same,"IC50, HIV-1 NL4.3 neutralization, PBMCs",[3],0.0293 µM
same,"IC50, HIV-1 NL4.3 (X4), MT-4",[4],0.0667 µM
same,"IC50, HIV-1 NL4.3 (X4), PBMC",[4],0.58 µM
same,"IC50, HIV-1 NL4.3 (X4), U87",[4],> 1.33 µM
same,EC50,[5],0.001 µM
same,EC50,[6],0.0011 µM
same,binding result,[7],no binding (tested: 250 nM)
same,EC50,[8],0.0006 µM
same,"IC50, HIV-1 HE, MT-4",[9],0.01 µM
same,"IC50, HIV-1 NL4.3, MT-4",[9],0.0347 µM
same,"IC50, HIV-2 ROD, MT-4",[9],0.0227 µM
same,"IC50, HIV-1 NL4.3 wt, MT-4",[10],0.0347 µM
same,"IC50, NL4.3 2G12 res., MT-4",[10],0.0233 µM
same,"IC50, NL4.3 AMD-3100 res., MT-4",[10],0.0227 µM
same,"IC50, NL4.3 CD4#8 res., MT-4",[10],> 6.7 µM
same,"IC50, NL4.3 CXCL-12res., MT-4",[10],0.153 µM
same,"IC50, NL4.3 CXCR4#2 res, MT-4",[10],> 6.7 µM
same,EC50,[11],0.00076 µM
same,EC50,[12],0.061 µM
B2,IC50,[13],0.0017 µM
same,IC50,[14],0.0047 µM
same,binding result,[7],no binding (tested: 250 nM)
same,EC50,[15],0.02 µM
same,Kd,[16],0.011 µM
same,koff,[16],0.0081 s⁻¹
same,kon,[16],730000 M⁻¹ s⁻¹
same,"IC50, IL-23 dependent IL-17 release, PBMC D840",[17],0.1 µM
same,binding result,[18],no binding (tested: 1E-6 M)
B3,EC50 (read off the curve),[19],~0.01 µM
same,EC50,[20],0.007 µM
same,"IC50, HIV-1 BaL (R5), PBMC",[21],> 1.67 µM
same,"IC50, HIV-1 NL4.3 (X4), MT-4",[21],0.0671 µM
same,"IC50, HIV-1 NL4.3 (X4), PBMC",[21],0.0293 µM
same,"IC50, HIV-1 NL4.3 (X4), U87",[21],> 6.67 µM
same,EC50,[22],0.0052 µM
same,EC50 (read off the curve),[23],~0.02 µM
same,"IC50, SDF-1 chemotaxis, Jurkat E6-1",[24],0.0842 µM
same,"IC50, SDF-1 chemotaxis, MOLM-13",[24],0.086 µM
same,EC50,[25],0.0078 µM
same,Ki,[26],0.0269 µM
same,"IC50, SDF-1 chemotaxis, Jurkat",[27],0.068 µM
same,"IC50, CXCL-12 chemotaxis, Jurkat E6-1",[28],0.0968 µM
same,"IC50, CXCL-12 chemotaxis, MOLM-13",[28],0.086 µM
same,binding result,[29],no binding (tested: 1E-6 M)
same,EC50 (read off the curve),[30],~0.02 µM
same,EC50 (read off the curve),[31],~0.006 µM
same,"IC50, HIV-1 HE, MT-4",[32],0.01 µM
same,"IC50, HIV-1 NL4.3, MT-4",[32],0.0227 µM
same,"IC50, HIV-2 ROD, MT-4",[32],0.0867 µM
same,"IC50, HIV-1 NL4.3 wt, MT-4",[33],0.0227 µM
same,"IC50, NL4.3 2G12 res., MT-4",[33],0.0173 µM
same,"IC50, NL4.3 AMD-3100 res., MT-4",[33],> 1.67 µM
same,"IC50, NL4.3 CD4#8 res., MT-4",[33],0.0873 µM
same,"IC50, NL4.3 CXCL-12res., MT-4",[33],0.22 µM
same,"IC50, NL4.3 CXCR4#2 res, MT-4",[33],2.33 µM
